Target: T1, Tof1 (S. cerevisiae (budding yeast), UniProt P53840 1-1238)
T1 construct: Tof1, budding yeast; the Tof1 chain of m2; Stood in the cross-linking sample as a chain of the Tof1-Csm3 complex; source: purified as part of Tof1-Csm3, as previously described (Yeeles et al. 2017)
T1 sequence (looked up): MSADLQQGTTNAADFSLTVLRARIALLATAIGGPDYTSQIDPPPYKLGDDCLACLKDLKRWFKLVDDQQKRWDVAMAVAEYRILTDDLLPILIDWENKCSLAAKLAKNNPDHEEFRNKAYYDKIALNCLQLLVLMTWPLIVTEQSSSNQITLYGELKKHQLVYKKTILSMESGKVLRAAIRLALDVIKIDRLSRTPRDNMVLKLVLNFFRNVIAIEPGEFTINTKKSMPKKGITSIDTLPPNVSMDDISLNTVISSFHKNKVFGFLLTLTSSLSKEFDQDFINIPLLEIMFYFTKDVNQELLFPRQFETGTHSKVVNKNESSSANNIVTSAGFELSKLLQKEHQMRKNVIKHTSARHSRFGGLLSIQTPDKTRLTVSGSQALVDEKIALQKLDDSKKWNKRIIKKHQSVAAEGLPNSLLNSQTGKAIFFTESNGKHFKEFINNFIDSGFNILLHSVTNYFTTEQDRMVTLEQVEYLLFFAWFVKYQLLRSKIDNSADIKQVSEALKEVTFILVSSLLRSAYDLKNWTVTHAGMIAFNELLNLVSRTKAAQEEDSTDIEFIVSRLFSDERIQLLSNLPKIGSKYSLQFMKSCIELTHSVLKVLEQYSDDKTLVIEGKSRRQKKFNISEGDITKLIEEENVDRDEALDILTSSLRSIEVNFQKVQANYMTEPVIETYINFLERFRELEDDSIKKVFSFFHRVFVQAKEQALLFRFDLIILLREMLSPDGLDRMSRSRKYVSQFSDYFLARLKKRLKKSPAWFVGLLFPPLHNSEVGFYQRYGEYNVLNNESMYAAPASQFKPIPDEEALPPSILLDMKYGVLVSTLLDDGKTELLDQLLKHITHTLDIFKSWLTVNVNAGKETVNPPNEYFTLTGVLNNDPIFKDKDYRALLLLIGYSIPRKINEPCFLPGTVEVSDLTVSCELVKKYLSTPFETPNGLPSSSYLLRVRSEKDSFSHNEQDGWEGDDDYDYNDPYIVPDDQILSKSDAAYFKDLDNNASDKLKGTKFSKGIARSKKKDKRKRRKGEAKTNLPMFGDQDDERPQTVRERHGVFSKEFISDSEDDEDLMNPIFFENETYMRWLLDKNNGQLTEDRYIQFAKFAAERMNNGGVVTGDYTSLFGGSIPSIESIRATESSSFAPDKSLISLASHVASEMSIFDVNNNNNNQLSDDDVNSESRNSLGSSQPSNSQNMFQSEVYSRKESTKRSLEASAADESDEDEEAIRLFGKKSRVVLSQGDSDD
Assay: cross-linking; CLMS with sulfo-SDA; cohesin, Tof1-Csm3 and Chl1 with or without Mrc1 at 300-350 nM, 30 °C 5 min, cross-linker 2 h at 4 °C, UV 365 nm; LC-MS/MS, 1% FDR at residue-pair level; two samples merged
Conditions: both partners purified

B1: Csm3 (natural protein, S. cerevisiae (budding yeast), UniProt Q04659 1-317, looked up)
chain: MDQDFDSLLLGFNDSDSVQKDPTVPNGLDGSVVDPTIADPTAITARKRRPQVKLTAEKLLSDKGLPYVLKNAHKRIRISSKKNSYDNLSNIIQFYQLWAHELFPKAKFKDFMKICQTVGKTDPVLREYRVSLFRDEMGMSFDVGTRETGQDLERQSPMVEEHVTSAEERPIVADSFAQDKRNVNNVDYDNDEDDDIYHLSYRNRRGRVLDERGNNETVLNNVVPPKEDLDALLKTFRVQGPVGLEENEKKLLLGWLDAHRKMEKGSMTEEDVQLIQSLEEWEMNDIEGQHTHYDLLPGGDEFGVDQDELDAMKEMGF
notes: Csm3, budding yeast; the Csm3 chain of m2; Stood in the cross-linking sample as a chain of the Tof1-Csm3 complex; source: purified as part of Tof1-Csm3, as previously described (Yeeles et al. 2017)
binding result: binds

B2: Smc1 (natural protein, S. cerevisiae (budding yeast), UniProt P32908 1-1225, looked up)
chain: MGRLVGLELSNFKSYRGVTKVGFGESNFTSIIGPNGSGKSNMMDAISFVLGVRSNHLRSNILKDLIYRGVLNDENSDDYDNEGAASSNPQSAYVKAFYQKGNKLVELMRIISRNGDTSYKIDGKTVSYKDYSIFLENENILIKAKNFLVFQGDVEQIAAQSPVELSRMFEEVSGSIQYKKEYEELKEKIEKLSKSATESIKNRRRIHGELKTYKEGINKNEEYRKQLDKKNELQKFQALWQLYHLEQQKEELTDKLSALNSEISSLKGKINNEMKSLQRSKSSFVKESAVISKQKSKLDYIFKDKEKLVSDLRLIKVPQQAAGKRISHIEKRIESLQKDLQRQKTYVERFETQLKVVTRSKEAFEEEIKQSARNYDKFKLNENDLKTYNCLHEKYLTEGGSILEEKIAVLNNDKREIQEELERFNKRADISKRRITEELSITGEKLDTQLNDLRVSLNEKNALHTERLHELKKLQSDIESANNQEYDLNFKLRETLVKIDDLSANQRETMKERKLRENIAMLKRFFPGVKGLVHDLCHPKKEKYGLAVSTILGKNFDSVIVENLTVAQECIAFLKKQRAGTASFIPLDTIETELPTLSLPDSQDYILSINAIDYEPEYEKAMQYVCGDSIICNTLNIAKDLKWKKGIRGKLVTIEGALIHKAGLMTGGISGDANNRWDKEEYQSLMSLKDKLLIQIDELSNGQRSNSIRAREVENSVSLLNSDIANLRTQVTQQKRSLDENRLEIKYHNDLIEKEIQPKITELKKKLDDLENTKDNLVKEKEALQNNIFKEFTSKIGFTIKEYENHSGELMRQQSKELQQLQKQILTVENKLQFETDRLSTTQRRYEKAQKDLENAQVEMKSLEEQEYAIEMKIGSIESKLEEHKNHLDELQKKFVTKQSELNSSEDILEDMNSNLQVLKRERDGIKEDIEKFDLERVTALKNCKISNINIPISSETTIDDLPISSTDNEAITISNSIDINYKGLPKKYKENNTDSARKELEQKIHEVEEILNELQPNARALERYDEAEGRFEVINNETEQLKAEEKKILNQFLKIKKKRKELFEKTFDYVSDHLDAIYRELTKNPNSNVELAGGNASLTIEDEDEPFNAGIKYHATPPLKRFKDMEYLSGGEKTVAALALLFAINSYQPSPFFVLDEVDAALDITNVQRIAAYIRRHRNPDLQFIVISLKNTMFEKSDALVGVYRQQQENSSKIITLDLSNYAE
notes: Smc1, budding yeast; the Smc1 chain of m1; Stood in the cross-linking sample as a chain of cohesin; source: purified as part of cohesin, as previously described (Minamino et al. 2018)
binding result: binds

Reference: PMC10247859, “Replisome-cohesin interactions provided by the Tof1-Csm3 and Mrc1 cohesion establishment factors” (Chromosoma, 2023)
